Reference: patent publication US9840539B2, “High affinity digoxigenin binding proteins” (UNIVERSITY OF WASHINGTON THROUGH ITS CENTER FOR …, priority 2013, dated 2017)
Residue numbers refer to the chain shown, from its start. Names and notes keep the numbering of the source. “Also recorded” adds a separate entry of the source. Where two headings read alike, the source gives them in different places.

B1: DIG5: computationally designed digoxigenin binding polypeptide from scaffold 1z1s, SEQ ID NO: 10 (protein)
chain: MNAKEILVHSLRLLENGDARGWCDLFHPEGVLEFPYAPPGWKTRFEGRETIWAHMRLHPEHVTVRFTDVQFYETADPDLAIGEYHGDGVVTVSGGKYAADFITVLRTRDGQILLYRVFWNPLRALEAAGGVEAAAKIVQGA
modifications: (130)..(141) amino acids are optionally absent
B2: DIG10: computationally designed digoxigenin binding polypeptide from scaffold 1z1s, SEQ ID NO: 12 (protein)
chain: MNAKEIVVHSLRLLENGDARGWCDLFHPEGVLEYPYAPPGHKTRFEGRETIWAHMRLFPEYVTVRFTDVQFYETADPDLAIGEFHGDGVHTVSGGKLAADYISVLRTRDGQILLYRVFFNPLRVLEALGGVEAAAKIVQGA
modifications: (130)..(141) amino acids are optionally absent
B3: DIG10.2: DIG10.1a variant with A37P and H41Y, SEQ ID NO: 14 (protein)
chain: B2 chain with S10A, A37P, H41Y, V62M, V64I, V117L, A127P
modifications: (130)..(141) amino acids are optionally absent
B4: DIG10.1a: affinity matured DIG10 variant with S10A, V62M, V64I, V117L, A127P; SEQ ID NO: 13 (protein)
chain: B2 chain with S10A, V62M, V64I, V117L, A127P
modifications: (130)..(141) amino acids are optionally absent
B5: 1z1s: scaffold, hypothetical protein of unknown function from Pseudomonas aeruginosa, SEQ ID NO: 24 (protein)
chain: B2 chain with V7L, Y34F, H41W, Y61H, V62L, H90A, A99Q, V117D, F119W, V124H

How the values were obtained:
[1] = Yeast surface display flow cytometry binding assay, DIG-RNase-biotin and SAPE; details: for compensated mean binding (PE) signal on yeast: 2.7 μM DIG-RNase-biotin pre-incubated with SAPE
Text: (§1) DIG10.1a-derived library DNA was sequenced in paired-end mode on an Illumina MiSeq.
(§2) General experimental methods. Detailed procedures for the syntheses of DIG-BSA-biotin, DIG-RNase-biotin, DIG-PEG3-biotin, and DIG-PEG3-Alexa488, as well as protein expression, purification, and crystallization, cloning, and mutagenesis methods are given in Supplementary Methods. Details about fluorescence polarization binding assays, gel filtration analysis, and protein stability measurements are also provided in Supplementary Methods. Yeast surface display. Designed proteins were tested for binding using yeast-surface display^40. […] DIG binding was assessed by quantifying the phycoerythrin (PE) fluorescence of the displaying yeast population following incubation with DIG-BSA-biotin, DIG-RNase-biotin, or DIG-PEG3-biotin, and streptavidin-phycoerythrin (SAPE). In a typical experiment using DIG-BSA-biotin or DIG-RNase-biotin, cells were resuspended in a premixed solution of PBSF (PBS+1 g/L of BSA) containing a 1:100 dilution of anti-cmyc FITC, […] DIG-BSA-biotin or DIG-RNase biotin, and 664 nM SAPE for 2-4 hr incubation at 4° C. Cellular fluorescence was monitored on an Accuri C6 flow cytometer using a 488 nm laser for excitation and a 575 nm band pass filter for emission. Phycoerythrin fluorescence was compensated to minimize bleed-over contributions from the FITC channel. Competition assays with free digoxigenin were performed as above except that between 750 μM and 1.5 mM of digoxigenin was added to each labeling reaction mixture. Full details are given in Supplementary Methods.
(§3) Yeast surface display assays. Designed proteins were tested for binding using yeast-surface display^23. Designs DIG1-17/pET29FLAG, DigA16/pET29FLAG, and 3hk4/pET29FLAG were subcloned into the NdeI/XhoI cloning sites of pETCON^24. Designs and control proteins in pETCON were transformed into EBY100 cells using lithium acetate and polyethylene glycol^25 with dH2O instead of single stranded carrier DNA and were plated on selective media (C -ura -trp). Freshly transformed cells were inoculated into 1 mL of SDCAA media^23 and grown at 30° C., 200 rpm. After ˜12 hrs, 1e7 cells were collected by centrifugation at 1,700×g for 3 min and resuspended in 1 mL of SGCAA media to induce protein expression. Following induction for 24-48 hrs at 18° C., 4e6 cells were collected by centrifugation, and washed twice by incubation with PBSF (PBS supplemented with […]) for 10 min at room temperature
(§4) DIG binding was assessed by quantifying the phycoerythrin (PE) fluorescence of the displaying yeast population following incubation with DIG-BSA-biotin, DIG-RNase-biotin, or DIG-PEG3-biotin, and streptavidin-phycoerythrin (SAPE; Invitrogen, Carlsbad, Calif.). In a typical experiment using DIG-BSA-biotin or DIG-RNase-biotin. 4e6 cells were resuspended in 50 μL of a premixed solution of PBSF containing a 1:100 dilution of anti-cmyc FITC, 2.66 μM DIG-BSA-biotin or DIG-RNase biotin, and 664 nM SAPE. Following a 2-4 hr incubation at 4° C. in the dark on a rotator, cells were collected by centrifugation at 1,700×g for 3 min and washed with 200 μL of PBSF at 4° C. Cell pellets were resuspended in 200 μL of ice-cold PBSF immediately before use. Cellular fluorescence was monitored on an Accuri C6 flow cytometer using a 488 nm laser for excitation and a 575 nm band pass filter for emission. Phycoerythrin fluorescence was compensated to minimize bleed-over contributions from the FITC fluorescence channel. […]

[2] = Fluorescence polarization equilibrium binding assay with purified protein; details: for affinity for DIG-PEG3-Alexa488 by fluorescence polarization (in words): purified protein in solution
Experimental: Proteins were expressed in E. coli Rosetta 2 (DE3) cells with a C-terminal TEV protease cleavable His6 tag for biochemical assays. For crystallographic analysis of DIG10 variants, a 12-amino acid structurally disordered C-terminus deriving from the scaffold protein 1z1s was replaced directly with a His6 tag. Binding affinities were determined by equilibrium fluorescence polarization^30 on a SpectraMax M5e microplate reader by monitoring the anisotropy of DIG-conjugated Alexa488 as a function of protein concentration. Equilibrium fluorescence polarization competition assays were performed by examining the effect of increasing concentrations of unlabeled DIG, digitoxigenin, progesterone, and β-estradiol on the anisotropy of designed protein-DIG-conjugated Alexa488 complex.
Fluorescence polarization binding assays. Fluorescence polarization-based affinity measurements of designs and their evolved variants were performed as described^46 using Alexa488-conjugated DIG (DIG-PEG3-Alexa488). Fluorescence anisotropy (r) was measured in 96-well plate format on a SpectraMax M5e microplate reader (Molecular Devices) with λex=485 nM and λem=538 nM using a 515 nm emission cutoff filter. Fluorescence polarization equilibrium competition binding assays were used to determine the binding affinities of DIG10.3 and its variants for unlabeled digoxigenin, digitoxigenin, progesterone, β-estradiol, and digoxin. The inhibition constant for each protein-ligand interaction, Ki, was calculated from the measured total unlabeled ligand producing 50% binding signal inhibition (I50) and the Kd of the protein-label interaction according to a model accounting for receptor-depletion conditions^46.
Fluorescence polarization equilibrium binding assays. Fluorescence polarization-based affinity measurements of designs and their evolved variants were performed as noted previously^47 using Alexa488-conjugated DIG (DIG-PEG3-Alexa488). In a typical experiment, the concentration of DIG-PEG3-Alexa488 was fixed below the Kd of the interaction being monitored and the effect of increasing concentrations of protein on the fluorescence anisotropy of Alexa488 was determined. Fluorescence anisotropy (r) was measured in 96-well plate format on a SpectraMax M5e microplate reader (Molecular Devices) with λex=485 nM and λem=538 nM using a 515 nm emission cutoff filter. In all experiments, PBS (pH 7.4) was used as the buffer system and the temperature was 25° C. DIG-PEG3-Alexa488 solutions were prepared from a 1 mM stock in DMSO. Equilibrium dissociation constants (Kd) were determined by fitting plots of the anisotropy averaged over a period of 20 to 40 min after reaction initiation versus protein concentration as described previously^47. […]

[3] = Yeast surface display flow cytometry binding assay, DIG-BSA-biotin and SAPE; details: for compensated mean binding (PE) signal on yeast: 2.7 μM DIG-BSA-biotin pre-incubated with SAPE; for binding in presence of unlabeled DIG competitor: DIG-BSA or DIG-RNase label, ˜1 mM unlabeled DIG
Text: as §1, §2, §3, §4

[4] = Circular dichroism spectroscopy, temperature melting; type: physicochemical
Experimental: Circular dichroism spectroscopy. Circular dichroism spectra were collected on an Aviv 62A DS spectrometer. Samples were prepared in PBS. Fixed-temperature scans were conducted at 25° C. All proteins were stable <°60 C.

Molecule	compensated mean binding (PE) signal on yeast [1]	binding (PE) signal in presence of unlabeled DIG competitor ([1]; 2.7 μM DIG-RNase-biotin, 790 μM unlabeled DIG)	affinity for DIG-PEG3-Alexa488 by fluorescence polarization (in words) [2]	compensated mean binding (PE) signal on yeast [3]	binding in presence of unlabeled DIG competitor [3]	thermal stability by CD temperature melting [4]	binding (PE) signal, stringent multistep labeling ([1]; 5 pM DIG-RNase, then SAPE)	increase of binding affinity relative to DIG10 ([2]; after one round of mutagenesis and selections)	thermal stability by CD temperature melting ([4]; PBS)
B1	strong binding signals	reduced to that of the negative control ZZ(−)	low to mid micromolar range	slightly above background levels	reduced to background levels				
B2	strong binding signals		low to mid micromolar range	strong binding signals	reduced to background levels				
B3						stable at temperatures below 60 °C			
B4						stable at temperatures below 60 °C	slightly higher signal; also recorded: strong binding signals	75 fold	
B5	does not show a binding signal		does not bind	does not bind to either label					stable at temperatures below 60 °C
